These results are taken from article doi:10.1101/2025.08.18.670902, “Pyrimethamine inhibits mutant NRF2 as a molecular glue” (bioRxiv, 2025).

The target of this experiment is T1, Kelch fragment (Ala321-Glu611 of human KEAP1 protein) (human, UniProt Q14145 321-611, biotinylated (site not stated)).
T1 construct: KEAP1, human, Kelch fragment Ala321-Glu611, printed MW 34,038.03 Da; Captured on a streptavidin chip through biotin; also called Kelch fragment of KEAP1; biotinylated Kelch; source: expressed in vitro, purified, biotinylated, validated by LC-MS
The experiment is described as follows: SPR; Biacore S200, biotinylated Kelch immobilised on a streptavidin chip; peptide analyte in 2-fold dilutions 200 μM to 0.39 μM, 30 μl/min, 90 s association, 180 s dissociation, analysis at 15 °C; without PYR. Particulars: both partners purified. A general note: SPR reads the build-up and loss of mass on a sensor chip optically.

T1 sequence (Q14145 321-611): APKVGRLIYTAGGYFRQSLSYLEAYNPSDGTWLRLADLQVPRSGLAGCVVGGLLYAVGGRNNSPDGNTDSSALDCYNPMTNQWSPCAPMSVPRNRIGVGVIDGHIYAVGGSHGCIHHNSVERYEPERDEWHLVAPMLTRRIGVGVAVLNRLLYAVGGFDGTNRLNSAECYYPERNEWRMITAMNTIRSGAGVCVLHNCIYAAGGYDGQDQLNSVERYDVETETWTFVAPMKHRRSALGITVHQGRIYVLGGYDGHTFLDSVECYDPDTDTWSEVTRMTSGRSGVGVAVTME

B1: DLG^WT peptide (NRF2 residues 17-40) (peptide)
peptide: MDLIDILWRQDIDLGVSREVFDFS
notes: NRF2 (NFE2L2), human, residues 17-40 with the DLG motif; also called 24-mer peptide; source: synthetic peptide
Turning to B1, the binding result is listed as “binds”.
